Laboratory results published in the domain aggregation screens of Martell et al. (2025).

Experiment: soluble fraction after stress (log2 fold change); higher = more stays soluble; pooled small domains, quantitative proteomics
Details: stress: 50 degC
Outline: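 Pooled custom libraries of small protein domains were each held under stress at 50°C. The read-out, high-throughput quantitative proteomics, tracked how much of each protein stayed soluble. This is reported as a base-two log fold change used to indicate aggregation propensity. Higher values mean more protein remains in solution.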

Point of comparison: “HMARLEELSNGSIVEGLLSGEAVTVVSTKWYGSSSMEVFYKTNRGSTGSQILYREDEPSLTVLEKS”, “soluble fraction (log2)” value -0.32. Against it:
- HMAQILEPSVALKKLLELKQAGFEDETLVGWIRKVEFTRPLTPDDLLEWKGAGISQAVIRAAM — higher, -0.0938
- HMAQISDEGLLRGLIVEMFEANPAVVEELLGGRDRKKGFVIGQIMKKTKGMANPALLDQLFYEELEKL — lower, -0.867
- HMAQTEIPYSEFLREVGNGQIKSVIIEGSEITGFYKTSGTSFNVVAPDDPKLVERLMDQGVEVRAQPT — higher, 0.0919
- HMAQVVMPNVVGKTEKDATATLEGKNLKVNVEYNLDATSDDGIVKEQSIKSGENIDEGTEITLKVNKV — lower, -1.07
- HMAQWGFNGSEAGDLSFQQGDVIEVVEKVKDDWWRGRVLGSTEIGLFPS — within 0.2 log units, -0.225
- HMARDDVIRLVQLSLDHLPAKYADALEWKYVEGLSTKEIAARLELGSEAAESLLARARRAFKNDFQEIFES — lower, -1.41
- HMAREFPGTIIKRGSRGPDVRWIQQHIGVKLVDGVFGRGTERAVKQFQSRRRLKADGIVGRQTWAAIHN — lower, -0.999
- HMARGATELPYSQLLDRVEAGEITTATTQGNTLLSTARDGKRYITYLPLDTMDEVVPRLDAANVEVKTER — higher, 0.0506
- HMARGLRPVPSVFGLDVRQATRTLYAAGFQVSIARGSDVRTRPAAGTLLRVGSTVQLEMPRMESA — lower, -1.54
- HMARGTRTRAKLLAAAEVVFARYGYTEASIERITEEAGVGQGTFYLYFASKLEIFEELVDDLNR — lower, -2.87
- HMARPLHVDALIHLGTEIGSRVGGAHAGPHLLVAGHSPMSELVYARLLGIPTLGWMRGQLTFVNLSK — higher, 0.155
- HMARSKSRQSSVLESVPGLGPSRRRNLLRHFGGLQGVVKAGVEDLMAVRGISRTLAETVYDHLHPGS — within 0.2 log units, -0.289
- HMARTIINLPLRNSVDESYNTTVNILQANGFKEVSYNGETVWKKGTGLLTAMQYIKIEFTDTTLVVSGWVQ — higher, ≥ 0.62
- HMARTLSVTVSENYANMRLDSFLFESGLYPSRSKAVKQIESGKVFVNGNEPTKKTIVVANDFIVYEEYAEE — lower, -1.06
- HMARTTIATPWDKINDLLQGGLGNGDFGLIFGNPGGGKSWSLVALGGFAVKLGYNVIHYTLE — higher, -0.054
- HMASAEDDLTRRARKLLTTSSMLKTLQPDTGERLQWLPQVVRLLAEGVEAPRIVVLIRRAMESG — lower, -1.04
- HMASALDFGRYVRSQYSLQEFPLILIAPLNDPHPKEVVRELFNLYLTKPITRSRLFDSLMTVLG — lower, -0.753
- HMASDQGAGALREVSAFFEKHGRVPDPDAVDHDEMRLGSIWASIKSAPTDQMRLEDRFGLLD — higher, 0.1
- HMASDYYTTTANLNLRSGAGTTYGSLIIIEKGDTVKLLENVNDHWVKIQYDDKIGYVAMSYLLPIE — within 0.2 log units, -0.484
- HMASEKSEQLYQQMKLDIAGMPPDTRLPSIRALMRSYSVSQLLIDRTLGRLREEGALRKRFDGLYTYL — lower, -2.06
- HMASELQQVQALLESQRYNEALILIETTIGKGASESTELLFARADVFASSGRHDEAEQAYREL — higher, -0.0838
- HMASELVSADEKYSGLVSYLLGRVVVVDQIDHAIALAKKYRYSLRIVTLDGELLSPGGSMTGGAFKNS — higher, -0.0628
- HMASEVEVPNVYGMPSSLAERELSAVGLLADYRSRTGTGQQPGTVVHVKPDAGTVVSRGSTVVLFIA — higher, 0.00535
- HMASFASRAEEVMTKLLANGQPRIKEVADAMHLSSRTLQRRLEREGVSFAELLDRLRKRLAHDMLAHS — lower, -0.813
- HMASFGDLSGLKRTYPPQGLPDASRIADFLIARNEGDLSVEQVKALERFLFEHPDHERTARLVAATRVPA — higher, -0.0263
- HMASFTDAQALEVKDLYPDWSKIPEGTHLEAGQRVRYNGNLYKVRTGQAHDKQSTWTPTDAASLFEAID — higher, 0.116
- HMASIEPLKTSIRIIWYINGEKDSETLLNTPPTAANKANAQKIADMVEQQIQMGIFNRDAVFPSSPKRQ — lower, -1.87
- HMASIGVGTIVRVANAVNYNGVKVKAWFNDEGYEVTELSGDRAVLKHNGDLFDAFHVSDLEA — lower, -1.29
- HMASINRIENKNGKVVYRIIVSLGYDKQGKKLKKTITYNVNQTATKKQQENEALKYALDIEDKIKNGHD — lower, -1.44
- HMASITLDQAKEIALTHAGQTADAVWFEKAEQDYDDGILVYELEFAAKGTEYEYEIDAQTGAIREYKWDD — higher, -0.0142
- HMASLSEREHDVAVLILQGKTYAEIGQAIFISPRTVEHHVASIRRRLEAKSRSDLIAKLRLTIGGTED — lower, -2.18
- HMASPTKQLVLEALRASGQPMSSMELSAQIGVSRATAQRYLSTLASAGEVKIQLRYGTTGRPEQEFLAIE — lower, -0.868
- HMASQFSLIVTQADAGMRLDSLLAVSGAYPSRSAAVKQIEAGKVLVNGLARSKRSIVAPGDTIVYEEIP — lower, -0.584
- HMASQVERGAVVVTDQRIFFIGVSSEGIEVHGTKIFGMSEKAPLYSHMKGLKKGDSFQFNGLKYVIQDIY — lower, -3.39
- HMASRKTERINRLIDVLQHATSRVPASVLSKILGIGERSVRNYVSEVNEQGQFRIDSSSGGYRLVA — within 0.2 log units, -0.147
- HMASRTLSYSEFMSRVDSGDVTSVTLDGERIIMRTSNNQEFLSIKPEGEDISERLLAKNIEVRAEAQQ — within 0.2 log units, -0.284
- HMASVGTHIKRLRAAKRMTQEELAEQLHVTRQAVSAWETGKALPDVEMLERIAAALDADVTEVIYGA — higher, 0.0402
- HMATAATGIINNNYVNVRSGPATTYNIVGRLDQGSSIEILGSKNDWYQIKTKQLNGWVKNDFINLQK — higher, 0.00222
- HMATETELNLQLMRIIDELHTDHNTWGSRKITDYLRLQGYEINRKRIQRLMDVMDIQVVYPK — lower, -1.98
- HMATEVEVPDVVGRQMALATQLLEARKLRVNVAEIYDEKTPPGQVVSQSPEAGSSVKEERVVTIYVSR — higher, -0.0321
- HMATGGKIYIGMNDNGKVVGVSDADKLLEDIPNKVRDVLGIIVDVNLLEENGLKYIEIDVPPYSN — lower, -0.585
- HMATGIKAVDNVFGWMNLEQVAKTVGLDIPSVLRASGLPEDTPVDISIKKIPGVDDEELKDSLRQYIEKS — higher, 0.0213
- HMATGTVKWFNPNKGFGFIQQDDASKDVFVHSNELNGVYINEGDKVEFDVVETEKGLSAQNIKK — higher, -0.0828
- HMATHGRRAVIELREKIVSGELPGGTRLFEVSLAETLDISRTPVREALSRLAEEGLLDRLPNGGFVVRR — within 0.2 log units, -0.503
- HMATIGVGSKVTLTTYVDWVGNGLLKTRDFYFVSELNGKRAVLRADSMNGAIYAAVNIDNLRI — lower, -2.56
- HMATINGIEKYLSSGLIPGIGPHTAKKLVEKFGLDTLDIMQYNPDRLTEVEGIGDKKAAKISEAFQEQK — higher, 0.0735
- HMATKVNSGVTVRDLAELLGLSSADLIKKLMTMGEMATLTQTLTDDSVKAIADEYDRKIEIVSAAQ — higher, -0.0488
- HMATLTPLGRLQLARYHAQERATLAATAERFQVSTTTVRRWVGRYHQVVAAGGRPTTADMQDRPSRP — lower, -2
- HMATMSIDERILEIRSRAGLTQQEMADRLFVTRQAVSRWERGETVPGIDTLRLIAEAFDVRVDQILEL — lower, -1.69
- HMATQMSSARRGIATDEMKQVAKDEDVTLDWLLPKIAIGSIIIPSNNVRPQKIHNVGIGKGMKTKVN — higher, 0.116
- HMATTTEPTSPPAATASLEAKINWLFLIFRNKKTVTASEQKFHAEDASTVVGKETLTDDGTTMTKGETAAG — higher, 0.0862
- HMATVELELKPEELRAGMILTKDLISGTGMMLLNKGVTLDNVKVEAIQRYYQLDPPLHGVFALVHGK — within 0.2 log units, -0.503
- HMATVGENIRRYRKAQNLSAAKLAEKVGLTQGAILHYERGIRTPGISQLEKIAHALNVSPRM — higher, -0.0581
- HMATVPNVVGLSEEKAKSRLANNGLNVSVTTEEVSDKSKDGIVSSQTSEGDTVKQGATITITVGKYVEK — higher, 0.14
- HMATYDIDALKVDLPSAKELAQFVYDKTDGLVSLDLIGKPKEEQYIVAKNALEGKKVPAEYLTGFNPY — higher, 0.202
- HMATYTPYDKQGAKLWRVTAYLGMDSVTGKQRNMKKGGFKTKKEAQLYYNQVKLDFENGTLDQ — lower, -1.22
- HMAVEQLKSQIGGFLKANREQSFSAQNMADGLRMNSAAGYQDVVNAMNALVRDGEAVEKDGQFSYNVN — higher, 0.15
- HMAVETYRVKKSDTMQTIADRFGLSVEELLEYNQAYKTRELRARDILIIPSRKERKKLQQQKAQAAAQVVQ — within 0.2 log units, -0.253
- HMAVGTASNLIGKDIEAYAPIDGSQSSDDTKTISGKVESVHIKDGVVYMNVKDSQSENIIEVEYGALIKVN — within 0.2 log units, -0.498
- HMAVKPIDRLRSLMAESNVTDAELQKVVADKGHYAADAPIDSYSEKFISGWLIKYWSQILNLINADRTVL — higher, -0.0363
- HMAVKTEHGRIWKALPEGQDGYREDVPMFTSKSMYDGSAGIGIFLIRLYEATSDERWLKEAEEAAAHII — higher, 0.351
- HMAVLEGPAGKLGIVRFEANRSFTGMGHERFSSADQAFGTKPAAVVASRLFATGQVAGVHVYGNIITVELA — higher, 0.528
- HMAVNDPDEKFIELGIPADWVQVVRKAGFQTVEALKTVENPNKLHQELSGLNKKMKLGLKTLSQDEVKDWF — higher, 0.215
- HMAVPMTPGELVGSRVRVLWWKDGRGEVVALARGHQATLPARSEEPLRTGADAVVLEADEGTLVVTS — higher, -0.0203
- HMAVSGRMMVYEYIRQQMREGSLLPGSVLDLPAISHKLGISNTPLRDSLIRLEAEGYLTIYPRSKVVIN — lower, -2.87
- HMAVTGRVDLRIKPWGYVSVDGAAKVSSPPTMQLKLAPGRHEIEITNPAGAAVTKTVDVIAGKSVTVQHN — higher, 0.0967
- HMAVTKVKVITESSNLNIRKGPGTDQPIVGKAAHHEIITLVNKSNDQWWLVRTNDGEEGYSYSRYLEPVT — within 0.2 log units, -0.39
- HMAVVEVATTTATEYKVEKGHHFKVGDFVMFKTGAKSYAITAIDTTSPIFDKITVGTTLGEAIPVGGTLM — lower, -1.38
